Ends that are not written are not given here.
T1: K280-ac protein fragment (human)
T1 construct: also called mAC
T1 peptide: VQIINK(Ac)KLDLSN


Experiments:
K280-ac protein fragment [1] = molecular target: T1, K280-ac protein fragment; assay: ELISA on K280-ac coated at 250 ng/well, HRP anti-human IgG
Experimental: (§1) In addition, binding of the K280-ac protein fragment prepared in Preparation Example 1 with the ADEL-Y01h (v01 to v12) antibodies prepared in Preparation Example 2 was measured by ELISA.
(§2) First, plates were treated with the K280-ac protein fragment at 250 ng/well and reaction was allowed to proceed at 4° C. overnight. The next day, washing with a washing buffer was performed three times, and then treatment with a primary antibody was performed with 8 concentrations (2 μg, 1 μg, 0.5 μg, 0.25 μg, 0.12 μg, 0.06 μg, 0.03 μg, 0.01 μg). As a secondary antibody, HRP-labeled anti-human IgG antibody was used.

Tau (Acetylation -) = molecular target: T2, Tau (Acetylation -); assay: plate assay as drawn: capture Ab 1ug/well, antigen titrated
T2 construct: also called non-Ac tau protein; non-acetylated wild type tau protein
T2 sequence (tau protein, as listed by the source): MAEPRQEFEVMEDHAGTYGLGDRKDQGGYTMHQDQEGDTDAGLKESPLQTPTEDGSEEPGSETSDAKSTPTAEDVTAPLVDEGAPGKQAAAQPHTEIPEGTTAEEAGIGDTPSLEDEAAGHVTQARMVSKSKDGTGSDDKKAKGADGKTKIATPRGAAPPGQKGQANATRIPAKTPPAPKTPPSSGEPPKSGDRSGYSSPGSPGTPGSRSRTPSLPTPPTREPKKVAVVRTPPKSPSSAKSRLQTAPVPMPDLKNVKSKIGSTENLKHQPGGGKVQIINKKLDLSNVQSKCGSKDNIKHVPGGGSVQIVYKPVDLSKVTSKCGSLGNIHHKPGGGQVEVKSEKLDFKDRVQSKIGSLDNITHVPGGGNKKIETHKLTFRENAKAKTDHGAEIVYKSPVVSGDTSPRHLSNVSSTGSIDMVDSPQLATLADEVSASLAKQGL

K280-ac protein fragment [2] = molecular target: T1, K280-ac protein fragment; assay: ELISA, K280-ac coated at 250 ng/well
Experimental: as §1, §2

Absorbance at 450nm at 0.01ug/well (K280-ac protein fragment [1])	Absorbance at 450nm at 0.03ug/well (K280-ac protein fragment [1])	Absorbance at 450nm at 0.06ug/well (K280-ac protein fragment [1])	Absorbance at 450nm at 0.12ug/well (K280-ac protein fragment [1])	Absorbance at 450nm at 0.25ug/well (K280-ac protein fragment [1])	Absorbance at 450nm at 0.5ug/well (K280-ac protein fragment [1])	Absorbance at 450nm at 1ug/well (K280-ac protein fragment [1])	Absorbance at 450nm at 2ug/well (K280-ac protein fragment [1])	binding result (K280-ac protein fragment [2])	Binder	binding result (Tau (Acetylation -))
0.731	0.899	1.1	1.58	1.93	2.07	2.22	2.42	–	ADEL-Y01h01_v01 antibody (antibody, V domains shown, Humanized ADEL-Y01m; It was detected with anti-human IgG; also called ADEL-Y01h v01) VH: EVQLQESGPGLVKPSQTLSLTCTVSGDSITSGYWNWIRQPPGKGLEYIGYIRYSGRTYYNPSLKSRVTISRDTSKNQFSLKLSSVTAADTAVYYCASVYFTYWGQGTLVTVSS VL: DVVMTQSPLSLPVTLGQPASISCKSSQSLLDSDGKTYLNWFQQRPGQSPKRLISLVSKLDSGVPDRFSGSGSGTDFTLKISRVEAEDVGVYYCWQGSHFPYTFGQGTKLEIK	no binding (tested: 100.00 (unit not printed))
–	–	–	–	–	–	–	–	binds	ADEL-Y01h v07 antibody (antibody, V domains shown, Humanized antibody; It was detected with anti-human IgG; also called Y01h01v07) VH: EVTLKESGPTLVKPTQTLTLTCTVSGDSITSGYWNWIRQPPGKALEYLAYIRYSGRTYYNPSLKSRLTITRDTSKNQVVLTMTNMDPVDTATYYCASVYFTYWGQGTLVTVSS VL: DVVMTQSPLSLPVTLGQPASISCKSSQSLLDSDGKTYLNWFQQRPGQSPKRLISLVSKLDSGVPDRFSGSGSGTDFTLKISRVEAEDVGVYYCWQGSHFPYTFGQGTKLEIK	–

Source: patent publication US20220204601A1 (ADEL, published 2022)
